One block for each binder: values may come before it.
What was measured:
[1] = target: T1, KRS fragment with deletion of amino acids at positions 1-71 in the N-terminus (human, UniProt Q15046 72-597); test: western blotting of lysate of transformed A549 cells
T1 construct: also called fragment 1; denoted by 1
Protocol: As described above, the scFv antibodies extracted from the periplasm were used to investigate using western blotting whether the scFv antibodies bound to the full-length KRS or respective KRS N-terminal fragments. Then, 30 μg of HCT116 cell lysate was electrophoresed through SDS PAGE, transferred onto PVDF membrane, and then blocked with 3% skim milk. Thereafter, the extracted scFv antibodies were added at 1.0 μg/μl, followed by incubation for 1 h. The unbound scFv antibodies were washed out, and for detection, the scFv binding with antigens were incubated with anti-HA secondary antibodies linked with horseradish peroxidase (HRP), and film sensitization was carried out using ECL reagent as a substrate in a dark room. The sensitized bands were compared with standard molecule markers to identify bands corresponding to sizes of the full-length KRS and the respective fragments.

[2] = target: T2, KRS fragment composed of amino acid residues 1-200 in the N-terminus (human, UniProt Q15046 1-200); test: Western blot on lysate of A549 cells transformed with the KRS fragment 1-200 (2), probed with the scFv
T2 construct: also called fragment 2; denoted by 2
T2 sequence (Q15046 1-200): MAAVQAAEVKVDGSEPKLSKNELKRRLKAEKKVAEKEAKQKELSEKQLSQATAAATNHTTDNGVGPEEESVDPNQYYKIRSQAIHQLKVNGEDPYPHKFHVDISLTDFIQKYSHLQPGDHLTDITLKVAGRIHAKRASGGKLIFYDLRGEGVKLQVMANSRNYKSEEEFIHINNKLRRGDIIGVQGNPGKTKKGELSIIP

[3] = target: T3, myc-KRS T52D (active mutant) (human, UniProt Q15046 2-597); test: Immunofluorescence on A549 cells transfected with Myc tagged KRS-T52D, fixed with paraformaldehyde
T3 construct: Active mutant whose N-terminal region is exposed on the cell membrane; also called KRS-T52D mutant; T52D-KRS
T3 sequence (Q15046 2-597 T52D): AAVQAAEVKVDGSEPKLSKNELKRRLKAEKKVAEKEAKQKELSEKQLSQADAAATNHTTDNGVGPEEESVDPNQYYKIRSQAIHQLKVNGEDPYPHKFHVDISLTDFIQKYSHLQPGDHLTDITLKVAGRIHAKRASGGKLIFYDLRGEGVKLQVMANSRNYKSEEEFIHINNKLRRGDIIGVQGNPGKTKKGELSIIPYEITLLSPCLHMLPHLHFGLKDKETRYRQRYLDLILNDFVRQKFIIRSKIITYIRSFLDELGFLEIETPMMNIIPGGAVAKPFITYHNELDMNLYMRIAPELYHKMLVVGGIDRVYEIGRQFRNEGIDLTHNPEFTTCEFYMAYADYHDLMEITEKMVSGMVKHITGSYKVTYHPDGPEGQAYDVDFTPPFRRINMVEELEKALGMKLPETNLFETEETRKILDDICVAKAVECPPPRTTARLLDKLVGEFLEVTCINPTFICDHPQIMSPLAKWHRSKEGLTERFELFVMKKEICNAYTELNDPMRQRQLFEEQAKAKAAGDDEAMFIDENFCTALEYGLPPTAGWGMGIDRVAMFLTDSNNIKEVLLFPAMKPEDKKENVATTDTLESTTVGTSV
Protocol: After incubation for 24 h, the cells were incubated using serum-free media (RPMI 1640 media) at 37° C. for 1 h. Thereafter, the cells were treated with 10 μg/ml laminin (L2020; Sigma) and then incubated at 37° C. for 1 h.
The prepared samples were washed with PBS (4° C.), fixed by the treatment with 4% paraformaldehyde for 10 min, and then washed. The samples were blocked with CAS block for 10 min, and treated with the scFv and Myc antibodies for 2 h. Thereafter, the unbound antibodies were washed out, and incubated with secondary antibodies for 1 h in a dark room. DAPI staining was performed for 10 min before mounting.

[4] = target: T4, human lysyl-tRNA synthetase (KRS), full-length (human, UniProt Q15046 1-597); test: Western blot on lysate of A549 cells transformed with full-length KRS (F), probed with the scFv
T4 construct: also called native KRS; full-length KRS
T4 sequence (Q15046 whole entry): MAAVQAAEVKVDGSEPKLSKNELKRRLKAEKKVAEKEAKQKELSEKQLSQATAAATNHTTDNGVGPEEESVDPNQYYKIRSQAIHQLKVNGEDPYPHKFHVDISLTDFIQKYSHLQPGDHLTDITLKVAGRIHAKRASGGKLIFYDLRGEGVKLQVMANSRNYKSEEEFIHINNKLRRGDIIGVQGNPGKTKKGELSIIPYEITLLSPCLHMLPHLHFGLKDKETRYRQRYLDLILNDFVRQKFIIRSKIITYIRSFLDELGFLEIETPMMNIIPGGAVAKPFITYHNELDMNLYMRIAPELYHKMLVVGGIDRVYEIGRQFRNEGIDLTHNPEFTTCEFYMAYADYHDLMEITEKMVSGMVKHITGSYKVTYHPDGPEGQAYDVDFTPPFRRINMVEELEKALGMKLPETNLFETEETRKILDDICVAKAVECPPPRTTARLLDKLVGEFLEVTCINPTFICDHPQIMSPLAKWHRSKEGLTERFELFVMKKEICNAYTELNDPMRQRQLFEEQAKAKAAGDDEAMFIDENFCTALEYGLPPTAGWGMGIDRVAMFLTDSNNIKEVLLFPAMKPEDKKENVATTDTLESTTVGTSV

KRS 1-207 aa = target: T5, KRS 1-207 aa (human, UniProt Q15046 1-207); test: SPR Biacore 2000, KRS 1-207 immobilised on CM5, antibody 6.25-100 nM as analyte
T5 construct: also called KRS N-terminal region (SPR antigen)
T5 sequence (Q15046 1-207): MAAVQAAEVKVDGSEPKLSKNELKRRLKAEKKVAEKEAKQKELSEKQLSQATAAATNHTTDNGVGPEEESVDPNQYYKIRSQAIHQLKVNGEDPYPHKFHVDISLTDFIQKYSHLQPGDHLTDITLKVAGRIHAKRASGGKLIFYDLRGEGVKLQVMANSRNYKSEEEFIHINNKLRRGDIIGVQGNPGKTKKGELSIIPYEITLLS
Protocol: After KRS was immobilized on a sensor chip (CM5, GE healthcare, US), antibody proteins (6.25-100 nM), which were serially diluted with HES buffer solution (10 mM HEPES, pH 7.4, 150 mM NaCl, 3 mM EDTA, 0.005% surfactant P20), were allowed to flow at a rate of 30 μl/min for 3 min, and 1 M NaCl/20 mM NaOH was allowed to flow at a rate of 30 μl/min for 3 min, thereby inducing the dissociation of proteins bound to the antigen. Mock IgG was used as control. Specific experiment conditions are as follows:
The affinity was obtained from the kinetic rate constants (ka and kd) and equilibrium dissociation constants (KD) by using BIA evaluation ver. 3.2 software.

T1 sequence (Q15046 72-597, stated change not applied): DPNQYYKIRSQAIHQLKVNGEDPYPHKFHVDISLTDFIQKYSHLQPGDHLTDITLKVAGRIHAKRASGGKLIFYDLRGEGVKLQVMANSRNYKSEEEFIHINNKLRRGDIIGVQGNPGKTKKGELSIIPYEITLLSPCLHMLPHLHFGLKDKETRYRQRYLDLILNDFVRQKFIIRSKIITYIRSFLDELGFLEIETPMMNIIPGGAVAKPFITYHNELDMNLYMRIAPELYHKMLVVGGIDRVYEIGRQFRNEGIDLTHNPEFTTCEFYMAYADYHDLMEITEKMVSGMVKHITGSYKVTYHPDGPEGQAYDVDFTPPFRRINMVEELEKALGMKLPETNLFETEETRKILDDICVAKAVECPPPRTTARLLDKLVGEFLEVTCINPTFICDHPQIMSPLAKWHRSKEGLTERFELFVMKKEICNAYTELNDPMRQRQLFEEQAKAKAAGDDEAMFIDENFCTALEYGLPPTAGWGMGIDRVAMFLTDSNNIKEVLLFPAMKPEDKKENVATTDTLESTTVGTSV

binding result [1]: no binding
binding result [2]: binds
binding result [3]: binds
binding result [4]: binds
B1: N5 scFv (scFv)
scFv: EVQLLESGGGLVQPGGSLRLSCAASGFTFSDYAMSWVRQAPGKGLEWVSWIYSGSGNKYYADSVKGRFTISRDNSKNTLYLQMNSLRAEDTAVYYCARMGLDFDYWGQGTLVTVSSGGGGSGGGGSGGGGSQSVLTQPPSASGTPGQRVTISCTGSSSNIGNNYVSWYQQLPGTAPKLLIYDDNQRPSGVPDRFSGSKSGTSASLAISGLRSEDEADYYCGTWDDSLSAYVFGGGTKLTVL
notes: HA-tagged scFv purified on Ni-NTA; also called scFv N5 clone

Kd (KRS 1-207 aa): 1.05 nM
koff (KRS 1-207 aa): 0.00328 s⁻¹
kon (KRS 1-207 aa): 3.13e+06 M⁻¹ s⁻¹
B2: N5 IgG (antibody, V domains shown)
VH: EVQLLESGGGLVQPGGSLRLSCAASGFTFSDYAMSWVRQAPGKGLEWVSWIYSGSGNKYYADSVKGRFTISRDNSKNTLYLQMNSLRAEDTAVYYCARMGLDFDYWGQGTLVTVSS
VL: QSVLTQPPSASGTPGQRVTISCTGSSSNIGNNYVSWYQQLPGTAPKLLIYDDNQRPSGVPDRFSGSKSGTSASLAISGLRSEDEADYYCGTWDDSLSAYVFGGGTKLTVL
notes: IgG made from the scFv variable regions
